Positions count from the first letter of the chain named.

The target of test [1] is T1, recombinant monkey TfR (r monkey TfR: Sino Biological Inc.) (cynomolgus monkey (Macaca fascicularis), UniProt Q5RDH6 89-760 (Pongo abelii entry)).
T1 construct: Bought product; also called r monkey TfR-ECD (Histag); cynomolgus monkey TfR; not shown: histidine tag attached to the N-terminus
T1 chain: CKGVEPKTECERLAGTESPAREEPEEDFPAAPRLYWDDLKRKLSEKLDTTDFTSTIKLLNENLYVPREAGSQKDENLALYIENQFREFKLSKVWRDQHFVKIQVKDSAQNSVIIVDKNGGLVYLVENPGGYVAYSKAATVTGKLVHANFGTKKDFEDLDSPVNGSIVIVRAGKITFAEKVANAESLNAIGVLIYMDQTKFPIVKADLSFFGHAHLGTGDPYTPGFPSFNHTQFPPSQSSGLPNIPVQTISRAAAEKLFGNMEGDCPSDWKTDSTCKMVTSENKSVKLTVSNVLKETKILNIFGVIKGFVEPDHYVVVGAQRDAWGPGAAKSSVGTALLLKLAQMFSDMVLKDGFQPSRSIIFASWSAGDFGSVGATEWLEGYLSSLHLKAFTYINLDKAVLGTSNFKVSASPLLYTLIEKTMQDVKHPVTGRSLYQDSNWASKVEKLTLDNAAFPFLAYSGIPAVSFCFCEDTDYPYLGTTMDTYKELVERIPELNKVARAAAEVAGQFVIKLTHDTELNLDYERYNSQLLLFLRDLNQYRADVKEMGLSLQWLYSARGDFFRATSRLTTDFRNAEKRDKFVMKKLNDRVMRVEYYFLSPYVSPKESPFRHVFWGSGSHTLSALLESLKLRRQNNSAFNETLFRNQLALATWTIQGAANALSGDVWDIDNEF
The test is described as follows: BLI (Octet RED96), method of Example 7, His-tagged TfR ECD on Ni-NTA sensor. On the procedure:
(§1) Each of the antibodies (anti-hTfR antibody Nos. 1 to 14) purified above was subjected to 2-fold dilution steps with HBS-P+(10 mM HEPES containing 150 mM NaCl, 50 μM EDTA and 0.05% Surfactant P20) to prepare antibody solutions of 7 different concentrations, 0.78125 to 50 nM (0.117 to 7.5 μg/mL). These antibody solutions were used as the sample solutions. The r human and r monkey TfRs were respectively diluted with HBS-P+ to prepare 25 μg/mL solutions, which were used as r human TfR-ECD (Histag) solution and r monkey TfR-ECD (Histag) solution, respectively.
(§2) Each of the sample solutions prepared above by 2-fold dilution steps was added, 200 μL/well, to a 96-well plate, black (Greiner Bio-One Inc.). Each of the r human TfR-ECD (Histag) solution and the r monkey TfR-ECD (Histag) solutions prepared above was added, 200 μL/well, to predetermined wells. To respective wells for baseline, dissociation and washing were added HBS-P+, 200 μL/well. To wells for regeneration were added 10 mM Glycine-HCl, pH 1.7, 200 μL/well. To wells for activation was added 0.5 mM NiCl₂ solution, 200 μL/well. The plate and biosensor (Biosensor/Ni-NTA: ForteBio Inc., a division of Pall Corporation) were set in the prescribed positions of Octet RED96. […] The measurement was performed at 25 to 30° C.
(§3) The affinity of the humanized anti-hTfR antibodies obtained in Example 13 to human and monkey TfRs was measured by the method described in Example 7.

For test [2], the target named is T2, recombinant human TfR (r human TfR: Sino Biological Inc.) (human, UniProt P02786 89-760).
T2 construct: Bought product; also called r human TfR-ECD (Histag); hTfR; not shown: histidine tag attached to the N-terminus
Described as above. On the procedure:
as §1, §2, §3

The target in test [3] is T1, recombinant monkey TfR (r monkey TfR: …). The test is described as follows: BLI (Octet RED96), His-tagged TfR ECD loaded on Ni-NTA sensor, antibody as analyte. On the procedure:
(§4) By measuring the variations of this shift between the interfering waves, determination of the number of the molecules bound to the layer of the biomolecules immobilized to the sensor tip surface and kinetic analysis of it can be performed in real time. The measurement was performed according generally to the operating manual attached to Octet RED96. As a human TfR, a recombinant human TfR (r human TfR: Sino Biological Inc.) was used, which had the amino acid sequence of the hTfR extracellular region, i.e., the cysteine residue at the position 89th from the N-terminal side to the phenylalanine at the C-terminus, of the amino acid sequence set forth as SEQ ID NO:1, with a histidine tag attached to the N-terminus. As a monkey TfR, a recombinant monkey TfR (r monkey TfR: Sino Biological Inc.) was used, which had the amino acid sequence of the cynomolgus monkey TfR extracellular region, i.e., the cysteine residue at the position 89th from the N-terminal side to the phenylalanine at the C-terminus, of the amino acid sequence set forth as SEQ ID NO:2, with a histidine tag attached to the N-terminus.
as §1
(§5) Each of the sample solutions prepared above by 2-fold dilution steps was added, 200 μL/well, to a 96-well plate, black (Greiner Bio-One Inc.). Each of the r human TfR-ECD (Histag) solution and the r monkey TfR-ECD (Histag) solutions prepared above was added, 200 μL/well, to predetermined wells. To respective wells for baseline, dissociation and washing were added HBS-P+, 200 μL/well. To wells for regeneration were added 10 mM Glycine-HCl, pH 1.7, 200 μL/well. To wells for activation was added 0.5 mM NiCl₂ solution, 200 μL/well. The plate and biosensor (Biosensor/Ni-NTA: ForteBio Inc., a division of Pall Corporation) were set in the prescribed positions of Octet RED96.

The target in test [4] is T2, recombinant human TfR (r human TfR: …). The description is as above. On the procedure:
as §4, §1, §5

In test [5] the target is human TrkB (GenBank Acc. No. NP_001018074.1) expressed in CHO cells (human, UniProt Q16620 32-822). Nature of the test: cell-based or functional assay.
human TrkB (GenBank Acc. No. NP_001018074.1) expressed in CHO cells, sequence (Q16620 32-822): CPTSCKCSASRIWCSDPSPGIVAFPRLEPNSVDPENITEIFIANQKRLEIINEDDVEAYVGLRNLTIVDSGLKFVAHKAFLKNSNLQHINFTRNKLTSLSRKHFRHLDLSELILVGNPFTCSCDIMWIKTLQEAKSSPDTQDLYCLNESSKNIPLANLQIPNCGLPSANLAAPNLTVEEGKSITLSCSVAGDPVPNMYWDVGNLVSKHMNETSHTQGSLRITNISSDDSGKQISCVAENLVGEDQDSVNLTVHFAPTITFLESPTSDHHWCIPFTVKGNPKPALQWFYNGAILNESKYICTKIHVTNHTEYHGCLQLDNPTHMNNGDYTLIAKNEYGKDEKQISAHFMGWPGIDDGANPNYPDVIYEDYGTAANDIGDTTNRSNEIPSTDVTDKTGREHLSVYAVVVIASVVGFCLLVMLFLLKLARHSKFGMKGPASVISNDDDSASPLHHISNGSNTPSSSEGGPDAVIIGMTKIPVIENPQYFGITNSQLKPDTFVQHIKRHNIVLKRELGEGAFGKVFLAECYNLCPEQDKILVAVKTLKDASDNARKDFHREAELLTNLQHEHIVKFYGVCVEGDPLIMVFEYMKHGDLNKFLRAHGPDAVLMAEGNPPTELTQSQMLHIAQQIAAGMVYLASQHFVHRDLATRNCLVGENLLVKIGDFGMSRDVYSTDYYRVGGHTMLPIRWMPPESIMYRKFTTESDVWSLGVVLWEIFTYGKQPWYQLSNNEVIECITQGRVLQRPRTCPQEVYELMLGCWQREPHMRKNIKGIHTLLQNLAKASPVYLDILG

B1: humanized anti-hTfR antibody No. 2 (antibody, human IgG1, kappa, V domains shown)
VH: QVQLVQSGAEVKKPGASVKVSCKASGYTFTDYVMHWVRQAPGQGLEWIGVISTYYGHGSYNQRFKGRATMTVDKSISTAYMELVRLRSDDTAVYYCVRGGYGSSSLAGNFDVWGQGTTVTVSS
VL: EIVLTQSPDFQSVTPKEKVTITCRASQSISNNLQWYQQKPDQSPKLLIKYASQSISGIPSRFSGSGSGTDFTLTINSLEAEDAATYLCQQSNSWPRTFGQGTKVEIKR
notes: IgG1; expressed in CHO-K1, purified on Protein A
As to B1, in test [1], the dissociation constant Kd was 0.0755 nM, the koff came to 3.67e-05 s⁻¹ and the kon was found to be 487000 M⁻¹ s⁻¹. In addition, in test [2], the dissociation constant Kd is < 0.001 nM, the dissociation rate constant (koff) was < 1e-07 s⁻¹ and the on-rate constant (kon) turned out to be 197000 M⁻¹ s⁻¹.

B2: anti-hTfR antibody No. 3 (antibody, V domains shown)
VH: EVQLQESGAELVRPGTSVKISCKASGYTFMNYWLGWVKQRPGHGLEWIGDIYPGGDYPTYSEKFKVKAILTADTSSSSVYLHLSSLTSEDSAVYFCARSGNYDEVAYWGQGTLVTVST
VL: DIVMTQTTLSLPVSLGDQASISCRSSQSLVHSNGNTYLHWYLQKPGQSPKLLIYKVSNRFSGVPDRFSGSGSGTDFTLKISRVEAEDLGVFFCSQSTHVPWTFGGGTKLEIKR
notes: Mouse hybridoma antibody purified on Protein G; also called mouse anti-hTfR antibody No. 3; product of Clone 3 line
As for B2, in test [3], the dissociation constant Kd is < 0.001 nM, the off-rate (koff) is < 1e-07 s⁻¹ and the kon amounted to 389000 M⁻¹ s⁻¹. Moreover, in test [4], the Kd was < 0.001 nM, the koff is < 1e-07 s⁻¹ and the kon was 653000 M⁻¹ s⁻¹.

B3: hBDNF-anti-hTfR antibody 5 (other)
chain: HSDPARRGELSVCDSISEWVTAADKKTAVDMSGGTVTVLEKVPVSKGQLKQYFYETKCNPMGYTKEGCRGIDKRHWNSQCRTTQSYVRALTMDSKKRIGWRFIRIDTSCVCTLTIKRGRGSGGGGSGGGGSGGGGSGGGGSGGGGSEVQLVQSGAEVKKPGESLKISCKGSGYSFTNYWLGWVRQMPGKGLEWMGDIYPGGDYPTYSEKFKVQVTISADKSISTAYLQWSSLKASDTAMYYCARSGNYDEVAYWGQGTLVTVSSGGGGSGGGGSGGGGSDIVMTQTPLSLSVTPGQPASISCRSSQSLVHSNGNTYLHWYLQKPGQSPQLLIYKVSNRFSGVPDRFSGSGSGTDFTLKISRVEAEDVGVYYCSQSTHVPWTFGQGTKVEIK
With B3, in test [5], the “BDNF activity (TrkB agonistic EC50, nmol/L)” value is 0.092 nmol/L.

B4: anti-hTfR antibody No. 12 (antibody, V domains shown)
VH: EVQLQESGAELARPGTSVKVSCKAAGYVFINYLIEWVKQRPGQGLEWIGVIHSGSGGTNYNDNFKDKATLTRDVSSSTAYMQLSSLTSDDSAVYFCARRNFGNYYFDYWGQGTTLTVSS
VL: DIVLTQSHKFMSTVIGDRVSITCKASHDVKTAVAWYQQTPGQSPKLLTYWSSTRHTGVPDRFTGSGSGTDYTLTISSVQAEDLALYYCQQHFSTPLTFGAGTKLELK
notes: Mouse hybridoma antibody purified on Protein G; also called mouse anti-hTfR antibody No. 12; product of Clone 12 line
Turning to B4, in test [3], the equilibrium dissociation constant (Kd) was 0.249 nM, the off-rate (koff) was determined as 0.000126 s⁻¹ and the on-rate constant (kon) was 505000 M⁻¹ s⁻¹. Also, in test [4], the equilibrium dissociation constant (Kd) was determined as 0.432 nM, the koff turned out to be 0.000723 s⁻¹ and the association rate constant (kon) turned out to be 754000 M⁻¹ s⁻¹.

B5: humanized anti-hTfR antibody No. 3-2 (antibody, human IgG1, kappa)
heavy: not shown
light: DIVMTQSPLSLPVTPGEPASISCRSSQSLVHSNGNTYLHWYLQKPGQSPQLLIYKVSNRFSGVPDRFSGSGSGTDFTLKISRVEAEDVGVYYCSQSTHVPWTFGQGTKVEIKRTVAAPSVFIFPPSDEQLKSGTASVVCLLNNFYPREAKVQWKVDNALQSGNSQESVTEQDSKDSTYSLSSTLTLSKADYEKHKVYACEVTHQGLSSPVTKSFNRGEC
notes: IgG1
In the case of B5, in test [1], the dissociation constant (Kd) worked out at 1.77 nM, the dissociation rate constant (koff) is 0.000876 s⁻¹ and the kon was 495000 M⁻¹ s⁻¹. Moreover, in test [2], the Kd was 0.0239 nM, the off-rate (koff) is 1.45e-05 s⁻¹ and the kon was found to be 606000 M⁻¹ s⁻¹.

B6: humanized anti-hTfR antibody No. 3-4 (antibody, human IgG1, kappa, V domains shown)
VH: EVQLVQSGAEVKKPGESLKISCKGSGYSFTNYWLGWVRQMPGKGLEWMGDIYPGGDYPTYSEKFKVQVTISADKSISTAYLQWSSLKASDTAMYYCARSGNYDEVAYWGQGTLVTVSS
VL: B2 VL with T8P, P12S, S14T, L15P, D17Q, Q18P, K50Q, L88V, G105Q, L109V
notes: IgG1
For the molecule B6, in test [1], the Kd was 0.26 nM, the off-rate constant (koff) came to 0.000135 s⁻¹ and the kon came to 519000 M⁻¹ s⁻¹. For the same molecule, in test [2], the dissociation constant (Kd) was < 0.001 nM, the koff is < 1e-07 s⁻¹ and the kon stood at 1.01e+06 M⁻¹ s⁻¹.

B7: humanized anti-hTfR antibody No. 3-3 (antibody, human IgG1, kappa)
heavy: not shown
light: B5 light with S7T, K108R, V109L
notes: IgG1
For B7, in test [1], the dissociation constant Kd is 1.91 nM, the koff is 0.000932 s⁻¹ and the on-rate (kon) was 488000 M⁻¹ s⁻¹. Further, in test [2], the Kd was determined as 0.0209 nM, the koff came to 1.25e-05 s⁻¹ and the kon turned out to be 600000 M⁻¹ s⁻¹.

B8: anti-hTfR antibody No. 14 (antibody, V domains shown)
VH: EVQLQESGPELLKPGASVKMSCKASGYAFTGYVIHWVKQKPGQGLEWIGFLNPHKDDSEYNEKFRGKATLTSDKSSSTAYMDLSSLTSEDSAVYYCARGYYYYSMDYWGQGTSVTVSS
VL: DIVLTQTPVIMSAYPGEKVTLTCSASSNINSIHWYQQKPGTSPKRWIYDTSNLASGVPARFSGSGSGTSYSLTISSMEAEDAASYYCHQRSGYPFTFGSGTKLEIK
notes: Mouse hybridoma antibody purified on Protein G; also called mouse anti-hTfR antibody No. 14; product of Clone 14 line
For B8, in test [3], the equilibrium dissociation constant (Kd) was determined as 0.0516 nM, the koff worked out at 3.61e-05 s⁻¹ and the kon was determined as 700000 M⁻¹ s⁻¹. Besides, in test [4], the Kd is < 0.001 nM, the dissociation rate constant (koff) was < 1e-07 s⁻¹ and the on-rate (kon) turned out to be 961000 M⁻¹ s⁻¹.

B9: humanized anti-hTfR antibody No. 1 (antibody, human IgG1, kappa, V domains shown)
VH: EVQLVESGGGLVQPGGSLRLSCAASGLTFSNYGMSWVRQAPGKGLELVANINTNGGSTYYPDSVKGRFTISRDNAKNSLYLQMNSLRAEDTAVYYCTNNRYDEDYWGQGTLVTVSS
VL: DIQVTQSPSFLSASVGDRVTITCKASQDVNSAVAWFQQKPGKAPKLLIYWTSTRHTGVPDRFSGSGSGTVYTLTISSLQPEDFATYYCQQHYSTPRTFGGGTKVEIKR
notes: as for B1
As to B9, in test [1], the dissociation constant Kd is < 0.001 nM, the dissociation rate constant (koff) was < 1e-07 s⁻¹ and the association rate constant (kon) was determined as 253000 M⁻¹ s⁻¹. Besides, in test [2], the Kd is < 0.001 nM, the off-rate (koff) was < 1e-07 s⁻¹ and the kon amounted to 393000 M⁻¹ s⁻¹.

These data come from patent US20240262926A1 (published 2024).
